# Measured values from publication PMC3828167 (PLoS Pathogens, 2013).
# B1: Human Arf1 lacking its N-terminal alpha-helix (Δ17Arf1) (domain or fragment)
# chain: not shown
# notes: also called Arf1-GDP; nucleotide-free Arf1
# Molecular target: Legionella pneumophila RalF Sec7 domain (LpRalF^Sec7, residues 1-201) (Legionella pneumophila, UniProt Q8RT31 1-201)
# Experiment: SEC
# Settings: both partners purified
binder,measurement,value
B1,binding result,binds
